Test results from US6858428B2, “Human and animal cell culture medium containing antithrombin III for suppressing cell death” (Agency of Industrial Science and Technology, priority 1999, dated 2005).
Entries after “also recorded” stand apart in the source; their conditions may differ.

B1: Antithrombin III: Lyophilized antithrombin III purified from bovine serum (protein, UniProt P41361 33-465, looked up)
Antithrombin-III: HRSPVEDVCTAKPRDIPVNPMCIYRSSEKKATEGQGSEQKIPGATNRRVWELSKANSHFATAFYQHLADSKNNNDNIFLSPLSISTAFAMTKLGACNNTLKQLMEVFKFDTISEKTSDQIHFFFAKLNCRLYRKANKSSELVSANRLFGGKSITFNETYQDISEVVYGAKLQPLDFKGNAEQSRLTINQWISNKTEGRITDVIPPQAINEFTVLVLVNTIYFKGLWKSKFSPENTRKELFYKADGESCSVLMMYQESKFRYRRVAESTQVLELPFKGDDITMVLILPKLEKTLAKVEQELTPDMLQEWLDELTETLLVVHMPRFRIEDSFSVKEQLQDMGLEDLFSPEKSRLPGIVAEGRSDLYVSDAFHKAFLEVNEEGSEAAASTVISIAGRSLNSDRVTFKANRPILVLIREVALNTIIFMGRVANPCVD
B2: EGF: growth factor reported as survival factor (protein, UniProt P01133 23-1207, looked up)
Pro-epidermal growth factor: PQHWSCPEGTLAGNGNSTCVGPAPFLIFSHGNSIFRIDTEGTNYEQLVVDAGVSVIMDFHYNEKRIYWVDLERQLLQRVFLNGSRQERVCNIEKNVSGMAINWINEEVIWSNQQEGIITVTDMKGNNSHILLSALKYPANVAVDPVERFIFWSSEVAGSLYRADLDGVGVKALLETSEKITAVSLDVLDKRLFWIQYNREGSNSLICSCDYDGGSVHISKHPTQHNLFAMSLFGDRIFYSTWKMKTIWIANKHTGKDMVRINLHSSFVPLGELKVVHPLAQPKAEDDTWEPEQKLCKLRKGNCSSTVCGQDLQSHLCMCAEGYALSRDRKYCEDVNECAFWNHGCTLGCKNTPGSYYCTCPVGFVLLPDGKRCHQLVSCPRNVSECSHDCVLTSEGPLCFCPEGSVLERDGKTCSGCSSPDNGGCSQLCVPLSPVSWECDCFPGYDLQLDEKSCAASGPQPFLLFANSQDIRHMHFDGTDYGTLLSQQMGMVYALDHDPVENKIYFAHTALKWIERANMDGSQRERLIEEGVDVPEGLAVDWIGRRFYWTDRGKSLIGRSDLNGKRSKIITKENISQPRGIAVHPMAKRLFWTDTGINPRIESSSLQGLGRLVIASSDLIWPSGITIDFLTDKLYWCDAKQSVIEMANLDGSKRRRLTQNDVGHPFAVAVFEDYVWFSDWAMPSVMRVNKRTGKDRVRLQGSMLKPSSLVVVHPLAKPGADPCLYQNGGCEHICKKRLGTAWCSCREGFMKASDGKTCLALDGHQLLAGGEVDLKNQVTPLDILSKTRVSEDNITESQHMLVAEIMVSDQDDCAPVGCSMYARCISEGEDATCQCLKGFAGDGKLCSDIDECEMGVPVCPPASSKCINTEGGYVCRCSEGYQGDGIHCLDIDECQLGEHSCGENASCTNTEGGYTCMCAGRLSEPGLICPDSTPPPHLREDDHHYSVRNSDSECPLSHDGYCLHDGVCMYIEALDKYACNCVVGYIGERCQYRDLKWWELRHAGHGQQQKVIVVAVCVVVLVMLLLLSLWGAHYYRTQKLLSKNPKNPYEESSRDVRSRRPADTEDGMSSCPQPWFVVIKEHQDLKNGGQPVAGEDGQAADGSMQPTSWRQEPQLCGMGTEQGCWIPVSSDKGSCPQVMERSFHMPSYGTQTLEGGVEKPHSLLSANPLWQQRALDPPHQMELTQ
modifications: Pro-epidermal growth factor

Assays:
osteoblast cell line ROS = experiment: Survival of osteoblast cell line ROS in serum-free culture (viable cell count after 3 days); type: cell-based; conditions: ROS osteoblasts
Method: Two mL cell suspension of osteoblast cell line ROS dispersed in trypsin (5×10^5 cells) were inoculated on six multi-well plates and pre-cultured by using Dulbecco's modified Eagle medium (DMEM) containing 10% fetal bovine serum, 1.6 g/L sodium hydrogencarbonate, 0.584 g/L L-glutamine, and 0.08 g/L kanamycin sulfate at 37° C. in a 5% CO2 gas phase. After one day, the broth was recovered, the cell surfaces were washed with serum-free medium, and the culture was continued for another 3 days with the addition of medium containing 10%, 0% fetal bovine serum, or 2 mL of fresh medium comprising 13 μg/mL antithrombin III added to media containing no fetal bovine serum (0%). The viable cell count was assayed after 3 days of culture.

hepatoma cell line HepG2 = experiment: Survival of hepatoma cell line HepG2 in serum-free culture (viable cell count after 3 days); type: cell-based; conditions: for Survival rate: HepG2, DMEM without fetal bovine serum; for Effect in controlling cell death (in words): HepG2, serum-free medium
Method: Two mL cell suspension of hepatoma cell line HepG2 dispersed in trypsin (5×10^5 cells) were inoculated on six multi-well plates and pre-culture by using Dulbecco's modified Eagle medium (DMEM) containing 5% fetal bovine serum, 1.6 g/L sodium hydrogencarbonate, 0.584 g/L L-glutamine, and 0.08 g/L kanamycin sulfate at 37° C. in a 5% CO2 gas phase. […] The viable cell count was assayed after 3 days of culture.
(§1) The hepatoma cell line HepG2 was pre-cultured in the same manner as in Example 1. After 1 day, the broth was recovered, the cell surfaces were washed with serum-free medium, and the culture was continued for another 3 days with the addition of medium containing 5%, 0% fetal bovine serum, or 2 mL of fresh medium comprising antithrombin III added in concentrations ranging from 1 to 25 μg/mL to media containing no fetal bovine serum (0%). The viable cell count was assayed after 3 days of culture.
as §1, with “III or any of-various synthetic protease inhibitors given in Table 4” for “III”, “added” for “added in concentrations ranging from 1 to 25 μg/mL”

| Molecule | Survival rate (osteoblast cell line ROS; DMEM without fetal bovine serum, additive 13 μg/ml) | Effect in controlling cell death (in words) (osteoblast cell line ROS; serum-free medium, additive 13 μg/mL) | Survival rate (hepatoma cell line HepG2; additive 1 μg/ml) | Survival rate (hepatoma cell line HepG2; additive 2.5 μg/ml) | Survival rate (hepatoma cell line HepG2; additive 5 μg/ml) | Survival rate (hepatoma cell line HepG2; additive 10 μg/ml) | Survival rate (hepatoma cell line HepG2; additive 17.5 μg/ml) | Survival rate (hepatoma cell line HepG2; additive 25 μg/ml) | Effect in controlling cell death (in words) (hepatoma cell line HepG2; additive 1 μg/mL) | Effect in controlling cell death (in words) (hepatoma cell line HepG2; additive 2.5 μg/mL (so in the source)) | Effect in controlling cell death (in words) (hepatoma cell line HepG2; additive 25 μg/mL) | Effect in controlling cell death (in words) (hepatoma cell line HepG2; concentration not given) | Survival rate (hepatoma cell line HepG2; additive 50 ng/ml) |
| --- | --- | --- | --- | --- | --- | --- | --- | --- | --- | --- | --- | --- | --- |
| B1 | 85.5% | considerably effective in controlling cell death | 68.6% | 68.0% | 74.1% | 88.5% | 93.3% | 94.0% | cell death was suppressed | virtually the same survival rate as a serum concentration of 5% | highly effective in controlling cell death | virtually the same survival rate as that of the medium with a 5% serum concentration; also recorded: considerably effective in controlling cell death | – |
| B2 | – | – | – | – | – | – | – | – | – | – | – | – | 54.7% |
